Data: paper PMC2998070

Target: mouse VMS1-Flag-HA (mouse) (UniProt Q80UU1)
Assay: co-IP

UniProt Q80UU1, sequence (Q80UU1 whole entry): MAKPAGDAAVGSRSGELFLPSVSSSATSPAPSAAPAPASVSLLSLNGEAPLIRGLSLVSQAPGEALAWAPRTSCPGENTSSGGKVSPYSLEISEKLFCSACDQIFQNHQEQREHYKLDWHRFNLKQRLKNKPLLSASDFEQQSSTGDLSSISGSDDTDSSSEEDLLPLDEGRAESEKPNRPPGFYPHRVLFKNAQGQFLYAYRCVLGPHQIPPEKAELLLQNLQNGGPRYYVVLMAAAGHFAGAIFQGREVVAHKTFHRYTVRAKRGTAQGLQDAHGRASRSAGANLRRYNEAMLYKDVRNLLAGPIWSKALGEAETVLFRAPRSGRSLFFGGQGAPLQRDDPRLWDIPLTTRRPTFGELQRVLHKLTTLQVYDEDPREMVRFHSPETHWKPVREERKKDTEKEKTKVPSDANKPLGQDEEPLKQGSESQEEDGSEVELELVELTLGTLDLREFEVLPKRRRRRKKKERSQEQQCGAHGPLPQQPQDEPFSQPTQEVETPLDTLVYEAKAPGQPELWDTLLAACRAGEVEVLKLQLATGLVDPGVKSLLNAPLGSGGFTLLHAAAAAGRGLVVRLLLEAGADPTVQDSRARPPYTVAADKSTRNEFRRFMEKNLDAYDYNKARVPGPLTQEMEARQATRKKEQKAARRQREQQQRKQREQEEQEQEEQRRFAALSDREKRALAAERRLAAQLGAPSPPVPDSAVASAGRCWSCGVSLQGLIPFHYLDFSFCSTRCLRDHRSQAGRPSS
VCP, sequence (Q01853 whole entry): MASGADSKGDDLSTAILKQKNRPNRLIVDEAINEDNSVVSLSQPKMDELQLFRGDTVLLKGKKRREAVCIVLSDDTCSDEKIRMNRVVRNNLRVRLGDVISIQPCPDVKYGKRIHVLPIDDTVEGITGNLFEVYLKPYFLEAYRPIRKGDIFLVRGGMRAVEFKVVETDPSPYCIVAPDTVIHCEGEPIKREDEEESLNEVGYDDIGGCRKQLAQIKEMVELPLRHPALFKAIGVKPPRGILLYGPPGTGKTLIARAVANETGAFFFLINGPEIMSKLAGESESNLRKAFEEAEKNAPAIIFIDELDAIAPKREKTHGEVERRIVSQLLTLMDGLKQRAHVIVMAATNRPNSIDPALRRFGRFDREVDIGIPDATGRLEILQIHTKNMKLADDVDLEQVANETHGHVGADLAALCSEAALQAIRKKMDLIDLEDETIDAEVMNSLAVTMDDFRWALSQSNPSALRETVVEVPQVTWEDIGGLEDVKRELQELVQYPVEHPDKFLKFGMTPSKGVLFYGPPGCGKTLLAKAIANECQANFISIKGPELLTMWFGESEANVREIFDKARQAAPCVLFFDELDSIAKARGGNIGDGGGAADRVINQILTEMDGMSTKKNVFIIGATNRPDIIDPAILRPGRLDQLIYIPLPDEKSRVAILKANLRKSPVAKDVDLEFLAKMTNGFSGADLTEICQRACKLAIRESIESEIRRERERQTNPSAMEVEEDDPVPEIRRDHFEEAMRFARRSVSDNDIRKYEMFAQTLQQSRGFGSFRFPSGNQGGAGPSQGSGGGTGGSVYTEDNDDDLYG

“VCP (from UniProt Q01853 1-806) (natural protein)” was tested, and the percent of the total cellular VCP associated with Vms1 was less than 5%.
